# According to patent US20140011732A1 (Novo Nordisk, published 2014):
# Starred links: 1 amine or outer side, 2 acyl side, 3 side chain; linkers in the order of their positions; H or OH if unused. Non-standard residues stand in square brackets, D forms with d. Groups on a side chain read outwards from the residue. Primed or numbered codes have the meaning given here. No end group written: not given here. *: point of attachment. C20 diacid = O=C(O)CCCCCCCCCCCCCCCCCCC(=O)*; C18 diacid = O=C(O)CCCCCCCCCCCCCCCCC(=O)*; d(βAsp) = O=C(O)[C@@H](CC(=O)[*:2])N[*:1]; γGlu = O=C(O)[C@H](CCC(=O)[*:2])N[*:1]; 2Nal = N[C@@H](Cc1ccc2ccccc2c1)C(=O)O; Desaminohistidyl = O=C(CCc1c[nH]cn1)*; Trx = NC[C@H]1CC[C@H](C(=O)O)CC1; Trx′ = not defined here; AEEA = NCCOCCOCC(=O)O; Aib = CC(C)(N)C(=O)O; Inp = O=C(O)C1CCNCC1; Bn = c1ccc(C*)cc1
# Molecular target: T1, human serum albumin (HSA) (human, UniProt P02768 25-609, biotinylated)
# T1 construct: also called biotinylated HSA
# Assay: competition SPA on biotinylated HSA, 125I acylated GLP-1 tracer;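 also: streptavidin SPA beads carrying biotinylated HSA, competition incubated 20 h at room temperature, plates then read on a TopCount counter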
row,EC50 [nM],Binder
1,800 to 2000,[Desaminohistidyl]AEGTFTSDVSSYLEEQAAREFIAWLVRGRGK([AEEA-AEEA-γGlu-Trx-C20 diacid])-NH2 (SMILES CC[C@H](C)[C@H](NC(=O)[C@H](Cc1ccccc1)NC(=O)[C@H](CCC(=O)O)NC(=O)[C@H](CCCNC(=N)N)NC(=O)[C@H](C)NC(=O)[C@H](C)NC(=O)[C@H](CCC(N)=O)NC(=O)[C@H](CCC(=O)O)NC(=O)[C@H](CCC(=O)O)NC(=O)[C@H](CC(C)C)NC(=O)[C@H](Cc1ccc(O)cc1)NC(=O)[C@H](CO)NC(=O)[C@H](CO)NC(=O)[C@@H](NC(=O)[C@H](CC(=O)O)NC(=O)[C@H](CO)NC(=O)[C@@H](NC(=O)[C@H](Cc1ccccc1)NC(=O)[C@@H](NC(=O)CNC(=O)[C@H](CCC(=O)O)NC(=O)[C@H](C)NC(=O)CCc1c[nH]cn1)[C@@H](C)O)[C@@H](C)O)C(C)C)C(=O)N[C@@H](C)C(=O)N[C@@H](Cc1c[nH]c2ccccc12)C(=O)N[C@@H](CC(C)C)C(=O)N[C@H](C(=O)N[C@@H](CCCNC(=N)N)C(=O)NCC(=O)N[C@@H](CCCNC(=N)N)C(=O)NCC(=O)N[C@@H](CCCCNC(=O)COCCOCCNC(=O)COCCOCCNC(=O)CC[C@H](NC(=O)[C@H]1CC[C@H](CNC(=O)CCCCCCCCCCCCCCCCCCC(=O)O)CC1)C(=O)O)C(N)=O)C(C)C)
2,800 to 2000,H[Aib]EGTFTSDVSSYLEEQAAREFIAWLVRGRK([AEEA-AEEA-γGlu-Trx-C20 diacid])-NH2
3,300 to 800,"H[Aib]EGTFTSDVSSYLEEQAAREFIAWLVRGRK-NH2 (not fully specified (residue 31); printed as N-epsilon37{2-[2-(2-{2-[2-((S)-3-carboxy-3-{[1-(19-carboxynonadecanoyl)piperidine-4-carbonyl]amino}propionylamino)ethoxy]ethoxy}acetylamino)ethoxy]ethoxy}acetyl [Aib8,Glu22,Arg26,Arg34,Lys37]GLP-1-(7-37)amide)"
4,1 to 100,HAEGTFTSDVSSYLEEQAAREFIAWLVRGRK (desaminoHis7; Lys37 is bound to the peptide via its epsilon amino group (epsilon-Lys37); its N-alpha carries the acyl side chain printed in the name)
5,1 to 100,HAEGTFTSDVSSYLEEQAAREFIAWLVRGRK (Aib8; Lys37 N-epsilon carries the acyl side chain printed in the name)
6,800 to 2000,HAEGTFTSDVSSYLEEQAAREFIAWLVRGRK (Aib8; Lys37 N-epsilon carries the acyl side chain printed in the name; C-terminal amide)
7,150 to 300,"{2‑(4-imidazolyl)acetyl}-AEGTFTSDVSSYLEEQAAREFIAWLVRGRK([AEEA-AEEA-γGlu-Trx′-C20 diacid]) (reading uncertain; also: printed as N-alpha8-[2-(4-imidazolyl)acetyl] N-epsilon37-[2-(2-{2-[2-(2-{2-[(S)-4-Carboxy-4-({trans-4-[(19-carboxynonadecanoylamino)methyl]cyclohexanecarbonyl}amino)butyrylamino]ethoxy}ethoxy)acetylamino]ethoxy}ethoxy)acetyl][Glu22,Arg26,Arg34,Lys37]GLP-1-(8-37), GLP-1-(8-37) = residues 2-31 of the entry) [N-alpha8-[2-(4-imidazolyl)acetyl] …]"
8,1 to 100,HAEGTFTSDVSSYLEEQAAREFIAWLVRGRGK (ImPr7 (imidazopropionic acid = des-amino-histidine); the added C-terminal Lys carries the acyl side chain printed in the name; C-terminal amide)
9,150 to 300,"HAEGTFTSDVSSYLEEQAAREFIEWLVKGRPK (Aib8; the added C-terminal Lys carries the acyl side chain printed in the name) [[Aib8,Glu22,Arg26,Glu30,Pro37]GLP-1-(7-37)Lys …]"
10,> 2000,"[Desaminohistidyl]AEGTFTSDVSSYLEGQAAREFIAWLVRGRGK([AEEA-AEEA-γGlu-Inp-C20 diacid]) [[DesaminoHis7,Arg26,34]-GLP-1 …]"
11,300 to 800,"H[Aib]EGTFTSDVSSYLEEQAAREFIEWLVKGRPK (not fully specified (residue 32); printed as [Aib8,Glu22,Arg26,Glu30,Pro37]GLP-1-(7-37)Lys (2-(2-(3-(2-(2-(2-(2-(2-(2-(2-(2-(2-(2-(2-(2-[4-(S)-carboxy-4-(4-(S)-carboxy-4-(4-{4-[16-(Tetrazol-5-yl)hexadecanoylsulfamoyl]butanoylamino}butanoylamino) butyrylamino)butyrylamino]ethoxy)ethoxy)ethoxy)ethoxy)ethoxy)ethoxy)ethoxy)ethoxy)ethoxy)ethoxy)ethoxy)ethoxy) propionylamino)ethoxy)ethoxy) peptide) [[Aib8,Glu22,Arg26,Glu30,Pro37]GLP-1-((7-37)Lys …]"
12,> 2000,"[Desaminohistidyl]AEGTFTSDVSSYLEGQAAREFIAWLVRGRGK-NH2 (not fully specified (residue 32); printed as [desaminoHis^7,Arg^26,Arg^34]GLP-1-(7-37)Lys[2-(2-[2-(2-[2-(2-((R)-3-[trans-4-((9-Carboxynonadecanoylamino]methyl)cyclohexylcarbonylamino]3-carboxypropionylamino)ethoxy)ethoxy]acetylamino)ethoxy]ethoxy)acetyl]amide)"
13,1 to 100,"HAEGTFTSDVSSYLEGQAAKEFIAWLKR (Aib8; N-epsilon26 (so in the source) carries the acyl side chain printed in the name, GLP-1-(7-34) = residues 1-28 of the entry)"
14,1 to 100,HAEGTFTSDVSSYKEEQAAREFIEWLVKGRP (Aib8; Lys20 N-epsilon carries the acyl side chain printed in the name; C-terminal amide)
15,800 to 2000,HAEGTFTSDVSKYLEEQAAKEFIAWLVQGRG (not fully specified; Aib8; Lys18 N-epsilon carries the acyl side chain printed in the name)
16,100 to 150,"H[Aib]EGTFTSDVSSYLEEQAAREFIAKLVKGRG (not fully specified (residue 25); printed as N-epsilon31{2-[2-(2-{2-[2-((S)-3-carboxy-3-{[1-(19-carboxynonadecanoyl)piperidine-4-carbonyl]amino}propionylamino)ethoxy]ethoxy}acetylamino)ethoxy]ethoxy}acetyl [Aib8, Glu22, Arg26,Lys 31]GLP-1-(7-37))"
17,800 to 2000,H[Aib]EGTFTSDVSSYK([AEEA-AEEA-d(βAsp)-Inp-C18 diacid])EGQAARE[2Nal]IEWLVKGRG-NH2
18,300 to 800,"H[Aib]EGTFTSDVSSYK([AEEA-AEEA-d(βAsp)-Inp-C18 diacid])EGQAAREFIEWLT(Bn)KGRG-NH2 (not fully specified; printed as N-ε^20({2-[2-(2-{2-[2-((R)-3-carboxy-3-{[1-(17-carboxyheptadecanoyl)piperidine-4-carbonyl]amino}propionylamino)ethoxy]ethoxy}acetylamino)ethoxy]ethoxy}acetyl) [Aib^8,Lys^20,Arg^28,Glu^30,Thr(O-benzyl)^33,]GLP-1-(7-37)amide, Arg26 used; also called [Aib^8,Lys^20,Arg^26,Glu^30,Thr(O-benzyl)^33,]GLP-1-(7-37)amide derivative)"
19,800 to 2000,"H[Aib]EGTFTSDVSKYLE[Aib]QAAREFIAWLVR[Aib]RG (not fully specified (residue 12); printed as N-epsilon 18-[2-(2-[2-(2-[2-(2-((R)-3-[trans-4-((9-Carboxynonadecanoylamino]methyl)cyclohexylcarbonylamino]3-carboxypropionylamino)ethoxy)ethoxy]acetylamino)ethoxy]ethoxy)acetyl][Aib8, 22,35, Lys18, Arg26,34]GLP-1-(7-37))"
20,150 to 300,"H[Aib]EGTFTSDVSSYLEEQAAREFIAKLVRGRG (not fully specified (residue 25); printed as N-epsilon31-(2-{2-[2-(2-{2-[2-((S)-3-Carboxy-3-{[1-(19-carboxy-nonadecanoyl)piperidine-4-carbonyl]amino}propionylamino)ethoxy]ethoxy}acetylamino)ethoxy]ethoxy}acetyl)[Aib8,Glu22,Arg26,Lys31,Arg34]GLP-1-(7-37))"
21,100 to 150,"H[Aib]EGTFTSDVSSYLEEQAAKEFIAWLVQGRG (not fully specified (residue 20); printed as N-epsilon26-[2-(2-[2-(2-[2-(2-((R)-3-[trans-4-((9-Carboxynonadecanoylamino]methyl)cyclohexylcarbonylamino]3-carboxypropionylamino)ethoxy)ethoxy]acetylamino)ethoxy]ethoxy)acetyl][Aib8, Glu22, Gln34]GLP-1-(7-37))"
22,150 to 300,"H[Aib]EGTFTSDVSSYLEEQAAREFIKWLVKGRG (not fully specified (residue 24); printed as N-epsilon30{2-[2-(2-{2-[2-((S)-3-carboxy-3-{[1-(19-carboxynonadecanoyl)piperidine-4-carbonyl]amino}propionylamino)ethoxy]ethoxy}acetylamino)ethoxy]ethoxy}acetyl [Aib8,Glu22,Arg26,Lys30]GLP-1-(7-37))"
23,150 to 300,H[Aib]EGT[2Nal]TSDVSSYK([AEEA-AEEA-d(βAsp)-Inp-C18 diacid])EGQAAREFIEWLVKGRG-NH2
